The source of these data is PMC9124873 (BioImpacts : BI, 2021).

In assay [1] the target is heavy chain of ranibizumab. As to the kind of experiment: ELISA.
Assay [2] addresses light chain of ranibizumab. Description: ELISA. In general terms: An ELISA detects its analyte on a solid surface through an enzyme-linked reagent.

B1: recombinant human VEGF-A protein (ligand)
chain: APMAEGGGQNHHEVVKFMDVYQRSYCHPIETLVDIFQEYPDEIEYIFKPSCVPLMRCGGCCNDEGLECVPTEESNITMQIMRIKPHQGQHIGEMSFLQHNKCECRPKKDRARQENPCGPCSERRKHLFVQDPQTCKCSCKNTDSRCKARQLELNERTCRCDKPRR
In the case of B1, the binding result in assay [1] and in assay [2] was “no binding” each time.
